The results in this text go back to patent US20200332015A1 (NAMAB THERAPEUTICS, published 2020).

“And” between values parts separate entries of the source, which are not always exact repeats. Identical values can stand only once. Like-named read-outs stand apart in the source and are kept apart here. Some results are limits rather than exact numbers.

In assay [1] the target is T1, human CD137 expressed on Jurkat cells (human, UniProt Q07011 24-255). As to the kind of experiment: cell-based or functional assay.
The target in assay [2] is T1, human CD137 expressed on Jurkat cells. Put plainly: cell-based or functional assay. This is another data set of the same source.
Assay [3] has the same target. As to the kind of experiment: cell-based or functional assay. This is another data set of the same source.
The target is the same in assay [4]. As to the kind of experiment: cell-based or functional assay. The source holds these as a separate data set.
For assay [5] the target is unchanged. Put plainly: cell-based or functional assay. This is another data set of the same source.
The target is the same in assay [6]. As to the kind of experiment: cell-based or functional assay. The source holds these as a separate data set.
The target is the same in assay [7]. As to the kind of experiment: cell-based or functional assay. The source holds these as a separate data set.
For assay [8] the target is unchanged. As to the kind of experiment: cell-based or functional assay. This is another data set of the same source.
Assay [9] has the same target. Put plainly: cell-based or functional assay. This is another data set of the same source.
Assay [10] has the same target. As to the kind of experiment: cell-based or functional assay. This is another data set of the same source.
For assay [11], the target named is human PDL1-Fc chimeric protein (human, UniProt Q9NZQ7 19-238, limits assumed). As to the kind of experiment: SPR T200, antigen-Fc captured, molecule as analyte. The procedure, abridged:
(§1)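 Biacore T200: anti-Fc antibody amine-coupled on CM5 chip captures chimeras of different species. Molecules injected as three-fold dilutions (0.12-90 nM) for 3 min, dissociation 10 min, 3 M MgCl₂ regeneration. Apparent ka, kd and KD from 1:1 Langmuir fit.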

Assay [12] concerns the target T2, Fc tagged human CD137 (R&D Systems, cat. 838-4B-100) (human, UniProt Q07011 24-186).
T2 construct: also called CD137 Fc chimera; human CD137-Fc chimeric protein
As to the kind of experiment: SPR T200, antigen-Fc captured, molecule as analyte. The procedure, abridged: as §1

For assay [13], the target named is T3, cynomolgus monkey Fc-tagged CD137 (R&D Systems, cat. 9324-4B-100) (cynomolgus monkey, UniProt A9YYE7 24-186).
T3 construct: also called cynomolgus CD137-Fc chimeric protein
T3 sequence (A9YYE7 entry or part of it): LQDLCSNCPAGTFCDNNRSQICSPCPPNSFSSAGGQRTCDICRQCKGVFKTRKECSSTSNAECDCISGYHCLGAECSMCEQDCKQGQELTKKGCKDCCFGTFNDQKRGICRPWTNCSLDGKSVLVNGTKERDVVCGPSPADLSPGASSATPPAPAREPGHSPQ
Put plainly: SPR T200, antigen-Fc captured, molecule as analyte. Summed up: as §1

The target of assay [14] is T4, mouse Fc-tagged mouse CD137 (R&D Systems, cat. 937-4B-050) (mouse, UniProt P20334 24-187).
T4 construct: also called mouse CD137-Fc chimeric protein
T4 sequence (looked up): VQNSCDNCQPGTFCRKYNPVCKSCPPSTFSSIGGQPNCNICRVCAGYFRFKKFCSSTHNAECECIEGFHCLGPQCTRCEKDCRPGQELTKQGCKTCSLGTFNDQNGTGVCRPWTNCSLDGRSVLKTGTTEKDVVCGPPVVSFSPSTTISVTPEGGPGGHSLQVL
As to the kind of experiment: SPR T200, antigen-Fc captured, molecule as analyte. The procedure, abridged:
as §1

Assay [15] concerns the target T2, Fc tagged human CD137 (R&D Systems, …). As to the kind of experiment: SPR T200, antigen-Fc captured, molecule as analyte. The source holds these as a separate data set.
In assay [16] the target is human PDL1 on cells (antigen-presenting cells and T cells of SEA stimulated human PBMC) (human, UniProt Q9NZQ7 19-290). Put plainly: cell-based or functional assay.
Assay [17] has as its target cynomolgus PDL1-Fc chimeric protein (cynomolgus, UniProt G7PSE7 19-238). As to the kind of experiment: SPR T200, antigen-Fc captured, molecule as analyte. The procedure, abridged: as §1

Chain of cynomolgus PDL1-Fc chimeric protein (G7PSE7 entry or part of it mutant): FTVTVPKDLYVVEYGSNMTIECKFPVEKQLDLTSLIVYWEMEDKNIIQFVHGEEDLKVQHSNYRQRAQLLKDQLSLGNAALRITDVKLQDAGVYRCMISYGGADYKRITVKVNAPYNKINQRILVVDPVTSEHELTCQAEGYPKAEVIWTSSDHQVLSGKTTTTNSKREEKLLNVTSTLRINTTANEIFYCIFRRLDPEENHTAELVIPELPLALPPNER

B1: PRO885 (38-02-A04 sc01 scDb-i/33-03-G02 sc01 scDb-o) (bispecific antibody)
chain: DIQMTQSPSSLSASVGDRVTITCQASQSINDYLAWYQQKPGKAPKLLIYKASTLASGVPSRFSGSGSGTDFTLTISSLQPEDFATYYCQQGYIITDIDNVFGTGTKVTVLGGGGGSQVQLQESGPGLVKPSETLSLTCKVSGFSFSNSYWICWIRQPPGKGLEWIGCTFVGSSDSTYYANWAKGRVTISVDSSKNQFSLKLSSVTAADTAVYYCARHPSDAVYGYANNLWGQGTLVTVSSGGGGSGGGGSGGGGSGGGGSIQMTQSPSSLSASVGDRVTITCQASQSINNVLAWYQQKPGKAPKLLIYRASTLASGVPSRFSGSGSGTDFTLTISSLQPEDFATYYCQSSYGNYGDFGTGTKVTVLGGGGGSQVQLQESGPGLVKPSETLSLTCKVSGFSFSSGYDMCWIRQPPGKGLEWIGCVVAGSVDITYYASWAKGRVTISVDSSKNQFSLKLSSVTAADTAVYYCARKDAYSDAFNLWGQGTLVTVSS
notes: scDb, PDL1 x CD137; also called anti-PDL1xCD137 scDb
Regarding B1, the “EC50 NFkB-luciferase, CHO-PDL1 cells” value in [1] was found to be 0.0117 µg/mL. Also, the “EC50 NFkB-luciferase, CHO-PDL1 cells” value in assay [2] is 0.0063 µg/mL and 0.00513 µg/mL and 0.00486 µg/mL. In addition, in assay [3], the “EC50 NFkB-luciferase, HCC827 without IFNy” value was 0.0115 µg/mL and 0.0131 µg/mL and 0.013 µg/mL. Besides, the “EC50 NFkB-luciferase, HCC827 with IFNy” value in [4] was 0.00927 µg/mL and 0.00888 µg/mL and 0.00923 µg/mL. Besides, in assay [5], the “EC50 NFkB-luciferase, CHO-PDL1 cells, 6 h” value amounted to 0.00784 µg/mL; the “EC50 NFkB-luciferase, CHO-PDL1 cells, 6 h, + HSA” value was determined as 0.00792 µg/mL; the “Top of curve fit, NFkB-luciferase, CHO-PDL1 cells, 6 h, + HSA” value was 493. Further, in [6], the “EC50 NFkB-luciferase, CHO-PDL1 cells, 24 h” value is 0.0138 µg/mL; the “EC50 NFkB-luciferase, CHO-PDL1 cells, 24 h, + HBA (so in the source)” value came out at 0.0149 µg/mL; the “Top of curve fit, NFkB-luciferase, CHO-PDL1 cells, 24 h, + HBA (so in the source)” value turned out to be 258. Moreover, in [7], the “EC50 NFkB-luciferase, HCC827 with IFNy stimulation” value is 0.00751 µg/mL and the “EC50 NFkB-luciferase, HCC827 without IFNy stimulation” value worked out at 0.00952 µg/mL. Further, in assay [8], the “EC50 of IL-2 secretion, PBMC + CHO-PDL1 50,000 cells/well, anti-CD3 1 ug/ml” value amounted to 0.0129 µg/mL; the “EC50 of IL-2 secretion, PBMC + CHO-PDL1 50,000 cells/well, anti-CD3 2 ug/ml” value amounted to 0.052 µg/mL; the “EC50 of IL-2 secretion, PBMC + CHO-PDL1 100,000 cells/well, anti-CD3 1 ug/ml” value turned out to be 0.0862 µg/mL; the “EC50 of IL-2 secretion, PBMC + CHO-PDL1 100,000 cells/well, anti-CD3 2 ug/ml” value was 0.0419 µg/mL. Also, in assay [8], the “EC50 of IL-2 secretion, PBMC + CHO-PDL1 200,000 cells/well, anti-CD3 1 ug/ml” value was 0.0806 µg/mL and the “EC50 of IL-2 secretion, PBMC + CHO-PDL1 200,000 cells/well, anti-CD3 2 ug/ml” value stood at 0.0301 µg/mL. Besides, in assay [9], the “max. activation, HCC827 +IFNg” value is 134%; the “max. activation, HCC827 -IFNg” value amounted to 111%; the “max. activation, NF-kB reporter gene, CHO-PD-L1” value is 499%; the “rel. IC50 (urelumab/test), HCC827 +IFNg” value is 16.3 ratio. Moreover, in [9], the “rel. IC50 (urelumab/test), HCC827 -IFNg” value came out at 8.42 ratio and the “rel. IC50 (urelumab/test), NF-kB reporter gene, CHO-PD-L1” value amounted to 6.75 ratio. Besides, the “EC50 of IL-2 secretion, SEA stimulated PBMC, 96 h” value in assay [10] is 0.0399 µg/mL. In assay [11], this molecule gave a dissociation constant Kd of 0.065 nM, a koff of 0.00014 s⁻¹ and a kon of 2.1e+06 M⁻¹ s⁻¹. In assay [12], this molecule had a Kd of 3.2 nM, an off-rate (koff) of 0.00076 s⁻¹ and a kon of 240000 M⁻¹ s⁻¹. In [13], this molecule returned a Kd of 2.1 nM, a koff of 0.0007 s⁻¹ and a kon of 340000 M⁻¹ s⁻¹. In assay [14], this molecule came in with a Kd of 600 nM, a koff of 0.18 s⁻¹ and a kon of 290000 M⁻¹ s⁻¹.

B2: PRO1124 (38-02-A04 sc06 Full scDb-i/33_03_G02 scDb-o) (bispecific antibody)
chain: DIQMTQSPSSLSASVGDRVTITCQASQSINDYLAWYQQKPGKAPKLLIYKASTLASGVPSRFSGSGSGTDFTLTISSLQPEDFATYYCQQGYIITDIDNVFGTGTKVTVLGGGGGSQVQLQESGPGLVKPSETLSLTCKASGFSFSNSYWICWVRQPPGKGLEWIGCTFVGSSDSTYYANWAKGRVTISKDSSKNQVSLKLSSVTAADTAVYFCARHPSDAVYGYANNLWGQGTLVTVSSGGGGSGGGGSGGGGSGGGGSLQMTQSPSSLSASVGDRVTITCQASQSINNVLAWYQQKPGKPPKLLIYRASTLASGVPSRFSGSGSGTDFTLTISSLQPEDFATYYCQSSYGNYGDFGTGTKVTVLGGGGGSQVQLQESGPGLVKPSETLSLTCKVSGFSFSSGYDMCWIRQPPGKGLEWIGCVVAGSVDITYYASWAKGRVTISVDSSKNQFSLKLSSVTAADTAVYYCARKDAYSDAFNLWGQGTLVTVSS
notes: scDb; also called PR01124
Turning to B2, in assay [2], the “EC50 NFkB-luciferase, CHO-PDL1 cells” value amounted to 0.00368 µg/mL and the “Top of curve fit, NFkB-luciferase, CHO-PDL1 cells” value came to 229. Also, in assay [3], the “EC50 NFkB-luciferase, HCC827 without IFNy” value came to 0.00562 µg/mL and the “Top of curve fit, NFkB-luciferase, HCC827 without IFNy” value stood at 113. In addition, in assay [4], the “EC50 NFkB-luciferase, HCC827 with IFNy” value came out at 0.00483 µg/mL and the “Top of curve fit, NFkB-luciferase, HCC827 with IFNy” value stood at 188. For the same molecule, in [9], the “max. activation, HCC827 +IFNg” value was found to be 188%; the “max. activation, HCC827 -IFNg” value is 113%; the “max. activation, NF-kB reporter gene, CHO-PD-L1” value was determined as 229%; the “rel. IC50 (urelumab/test), HCC827 +IFNg” value was 22.4 ratio. Besides, in [9], the “rel. IC50 (urelumab/test), HCC827 -IFNg” value was found to be 19.9 ratio and the “rel. IC50 (urelumab/test), NF-kB reporter gene, CHO-PD-L1” value came to 23.5 ratio. Besides, the “fold improvement of affinity against PRO885” value in assay [15] is more than 200 fold. In assay [11], this molecule had a Kd of 0.067 nM, a koff of 0.0002 s⁻¹ and a kon of 3.1e+06 M⁻¹ s⁻¹. Besides, in assay [12], the dissociation constant (Kd) was not above 0.015 nM, the koff was less than 1e-05 s⁻¹ and the kon amounted to 680000 M⁻¹ s⁻¹. Also, in [13], the Kd was 0.59 nM, the koff came out at 0.00033 s⁻¹ and the association rate constant (kon) came out at 560000 M⁻¹ s⁻¹. For the same molecule, in [14], binding was characterised by a dissociation constant (Kd) of 11 nM, the koff was determined as 0.0022 s⁻¹ and the kon is 200000 M⁻¹ s⁻¹.

B3: PRO997 (37-20-B03 CDR, scFv) (scFv)
scFv: DIQMTQSPSSLSASVGDRVTITCQASQSIGTYLAWYQQKPGKAPKLLIYRAFILASGVPSRFSGSGSGTDFTLTISSLQPEDFATYYCQSNFYSDSTTIGPNAFGTGTKVTVLGGGGGSGGGGSGGGGSGGGGSQVQLQESGPGLVKPSETLSLTCKVSGFSFNSDYWIYWIRQPPGKGLEWIGSIYGGSSGNTQYASWAQGRVTISVDSSKNQFSLKLSSVTAADTAVYYCARGYVDYGGATDLWGQGTLVTVSS
notes: also called anti-PDL1 scFv PRO997
For B3, the “EC50 of IL-2 secretion, SEA stimulated PBMC, 96 h” value in assay [16] stood at 0.0409 µg/mL. Further, in assay [11], the Kd was not above 0.0017 nM, the koff is less than 1e-05 s⁻¹ and the kon amounted to 5.9e+06 M⁻¹ s⁻¹. Further, in [17], the Kd was less than 0.00167 nM, the koff was less than 1e-05 s⁻¹ and the kon was found to be 6e+06 M⁻¹ s⁻¹.
